The source of these data is US20250092135A1 (NANJING LEADS BIOLABS, published 2025).

Test [1] concerns the target T1, cynomolgus monkey GPRC5D protein (cynomolgus monkey, UniProt Q9NZD1 1-343 (human entry)).
T1 construct: also called CynoGPRC5D; on HEK293T-CynoGPRC5D cells
T1 chain: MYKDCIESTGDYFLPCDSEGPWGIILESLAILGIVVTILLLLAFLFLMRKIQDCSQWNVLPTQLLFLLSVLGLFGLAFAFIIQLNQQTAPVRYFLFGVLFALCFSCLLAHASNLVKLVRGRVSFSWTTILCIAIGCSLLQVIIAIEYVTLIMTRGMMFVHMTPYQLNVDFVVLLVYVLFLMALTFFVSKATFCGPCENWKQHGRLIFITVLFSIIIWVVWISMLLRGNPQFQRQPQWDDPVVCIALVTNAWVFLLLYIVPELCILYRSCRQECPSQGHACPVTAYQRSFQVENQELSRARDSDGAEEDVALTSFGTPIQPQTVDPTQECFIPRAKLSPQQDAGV
Kind of test: flow cytometry, HEK293T-CynoGPRC5D cells (sheet: 293T-cynoGPRC5D), PE anti-human IgG Fc secondary, MFI. The protocol:
The HEK293T-CynoGPRC5D cell line shown in Table 2 was subjected to enzymatic digestion to obtain a single cell suspension. The single cell suspension was centrifuged at room temperature at 400×g, and then the medium was discarded. The cell pellet was washed once with PBS and then resuspended in the serially diluted bifunctional antibodies shown in Table 5 (at an initial concentration of 115.6 nM, 4-fold gradient dilution, 8 concentration points in total), and the cells were incubated at 4° C. for 30 min. The cells were washed once with PBS, and then fluorescent secondary antibody R-PE-conjugated AffiniPure Goat Anti-Human IgG, Fcγ Fragment Specific (Jackson ImmunoResearch, Cat #109-116-098) diluted in a 1:200 ratio was added. The cells were incubated in the dark at 4° C. for 30 min. The cells were washed twice with PBS and then resuspended, and finally, two-channel fluorescence signals were detected using a Beckman Cytoflex flow cytometer.
On the technique in general: Flow cytometry measures light scatter and fluorescence of single cells or particles in a stream.

Test [2] concerns the target T2, Human CD3D & CD3E heterodimer protein (human, UniProt P07766 23-126; P04234 22-105).
T2 construct: Bought recombinant heterodimer; also called human CD3 protein (Sino Biological, Cat #CT038-H2508H)
Put plainly: BLI (ForteBio Octet RED96), antibody on AHC sensor, 100 nM analyte, 1:1 model. The text has this: (§1) In this experiment, the binding affinity of the bispecific antibody [0913] for human CD3D & CD3E heterodimer protein (Sino Biological, Cat #CT038-H2508H) and monkey CD3D & CD3E heterodimer protein (Acro biosystems, Cat #CDD-C52W4) was detected using ForteBio Octet RED96 according to the manufacturer's instructions.
(§2) Briefly, an AHC sensor (ForteBio, Cat #18-5060) was placed in a running buffer (1×PBS, Hyclone, Cat #SH30256.01, containing 0.02% Tween 20, pH 7.0) and pre-equilibrated at room temperature for 10 min.
(§3) The experimental data were fitted and calculated using a Fortebio Data Analysis software 1:1 binding model.

Test [3] deals with T3, Cynomolgus monkey CD3D & CD3E heterodimer protein (cynomolgus monkey, UniProt Q95LI5 22-117; Q95LI8 22-105).
T3 construct: same catalogue number; also called monkey CD3 protein (Acro biosystems, Cat #CDD-C52W4)
The test is described as above.
Description: as §1, §2, §3

A further test deals with T4, human GPRC5D protein (human, UniProt Q9NZD1 1-345).
T4 construct: NCI-H929 cells express it endogenously in the functional assays; also called HuGPRC5D; huGPRC5D
Kind of test: flow cytometry, HEK293T cells stably expressing human GPRC5D (sheet: 293T-huGPRC5D), PE anti-human IgG Fc secondary, MFI. The protocol:
(2) Whether the anti-CD3/anti-GPRC5D bispecific antibodies in the present invention could bind to HEK293T cells stably expressing the human GPRC5D protein was determined by cell binding experiments. […] The plate was centrifuged at room temperature at 400×g, and then the supernatant was discarded. The cells were washed twice with PBS and centrifuged. The supernatant was discarded. The cell pellet was resuspended in fluorescent secondary antibody R-PE-conjugated AffiniPure Goat Anti-Human IgG, Fcγ Fragment Specific (Jackson ImmunoResearch, Cat #109-116-098) diluted in a 1:200 ratio. The cells were incubated in the dark at 4° C. for 30 min. The cells were washed twice with PBS, and 100 μL of PBS was added to each well to resuspend the cells. Fluorescence signals were detected using a Beckman Cytoflex flow cytometer.

For test [4], the target named is T5, rhesus monkey MUC16 protein (ECT_TM RhMuc16) on 293T cells (rhesus monkey).
T5 chain: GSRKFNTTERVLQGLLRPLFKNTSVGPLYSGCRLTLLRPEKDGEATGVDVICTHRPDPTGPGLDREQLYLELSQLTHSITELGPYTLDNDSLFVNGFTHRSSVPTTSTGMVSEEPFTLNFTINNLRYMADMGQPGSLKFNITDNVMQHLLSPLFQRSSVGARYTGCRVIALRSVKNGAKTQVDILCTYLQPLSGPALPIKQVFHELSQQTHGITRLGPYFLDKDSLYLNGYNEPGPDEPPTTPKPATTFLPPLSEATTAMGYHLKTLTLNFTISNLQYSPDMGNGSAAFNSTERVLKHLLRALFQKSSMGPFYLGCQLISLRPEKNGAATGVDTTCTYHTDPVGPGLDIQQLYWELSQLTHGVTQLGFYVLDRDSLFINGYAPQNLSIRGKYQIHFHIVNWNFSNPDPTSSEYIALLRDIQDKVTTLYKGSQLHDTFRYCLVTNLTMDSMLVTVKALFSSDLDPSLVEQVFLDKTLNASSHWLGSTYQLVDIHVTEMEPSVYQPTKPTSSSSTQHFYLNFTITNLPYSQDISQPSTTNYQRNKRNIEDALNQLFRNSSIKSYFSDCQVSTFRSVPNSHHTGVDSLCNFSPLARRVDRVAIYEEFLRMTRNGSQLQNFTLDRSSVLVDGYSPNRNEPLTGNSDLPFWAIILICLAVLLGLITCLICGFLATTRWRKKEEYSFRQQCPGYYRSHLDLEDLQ
Put plainly: flow cytometry, 293T/rhesus MUC16 cells as printed on the sheet and in the legend (the example, paragraph 611, speaks of cynomolgus MUC16), PE anti-human IgG Fc secondary, MFI; EC50 table under the plot, unit from the axis Conc.(nM). The protocol: Referring to the flow cytometry described above, the serially diluted test bispecific antibody (at an initial concentration of 100 nM, 5-fold dilution, 9 points) was added to the cells, and the plate was incubated at 4° C. for 30 min. The cells were washed twice with PBS, and then fluorescent secondary antibody R-PE-conjugated AffiniPure Goat Anti-Human IgG, Fcγ Fragment Specific was added. The cells were incubated at 4° C. for 30 min. The cells were washed twice with PBS and then resuspended, and finally, fluorescence signals were detected using a BD Accuri C5 (BD Bioscience) flow cytometer.

For test [5], the target named is T6, human MUC16 protein endogenously expressed on cells (human, UniProt Q8WXI7 1-14507).
T6 construct: whole, on cells; also called MUC16 on OVCAR3 cells; MUC16 in ovarian carcinoma tissue
Put plainly: flow cytometry, OVCAR3 cells (endogenous human MUC16), PE anti-human IgG Fc secondary, MFI; EC50 table under the plot, unit from the axis Conc.(nM). The protocol:
(1) Whether the anti-CD3/anti-MUC16 bispecific antibodies in the present invention could bind to the MUC16 protein endogenously expressed on human ovarian carcinoma cells (OVCAR3) (Cell Bank of Type Culture Collection Committee of the Chinese Academy of Sciences, Cat #TCHu228) was determined by cell binding experiments.
The experiments were performed using flow cytometry. OVCAR3 cells were digested, centrifuged and collected. The cells were resuspended in a PBS solution, and seeded into a 96-well plate (Corning, Cat #3799) at 1×10⁵ cells/well. The 96-well plate was centrifuged and then the supernatant was discarded. 100 μL of the serially diluted test bispecific antibody (at a maximum concentration of 200 nM, 5-fold dilution from 100 nM, 9 concentration points in total) was added to the OVCAR3 cells. The plate was incubated at 4° C. for 30 min and centrifuged (1000 rpm, 5 min), and then the supernatant was discarded. 100 μL of PBS solution was added to each well, and the cells were washed twice. 100 μL of fluorescent secondary antibody R-PE-conjugated AffiniPure Goat Anti-Human IgG, Fcγ Fragment Specific (Jackson ImmunoResearch, Cat #109-116-098) diluted in a ratio of 1:200 was then added. The cells were incubated at 4° C. for 30 min. After the cells were washed twice with the PBS solution, 100 μL of PBS solution was added to each well to resuspend the cells, and finally, fluorescence signals were detected using a BD Accuri C5 (BD Bioscience) flow cytometer according to the manufacturer's instructions. REGN4018 was used as a positive control.

T2 sequence (P07766 23-126 limits assumed, chain 1 of 2): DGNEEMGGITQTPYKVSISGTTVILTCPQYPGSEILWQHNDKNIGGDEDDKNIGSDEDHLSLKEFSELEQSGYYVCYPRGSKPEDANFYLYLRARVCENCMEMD
T2 sequence (P04234 22-105 limits assumed, chain 2 of 2): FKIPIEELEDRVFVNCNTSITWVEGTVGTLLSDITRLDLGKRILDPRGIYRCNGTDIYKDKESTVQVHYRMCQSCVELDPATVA
T3 sequence (Q95LI5 22-117 limits assumed, chain 1 of 2): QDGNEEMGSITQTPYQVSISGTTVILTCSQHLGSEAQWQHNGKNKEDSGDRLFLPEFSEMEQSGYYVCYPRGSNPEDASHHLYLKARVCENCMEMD
T3 sequence (Q95LI8 22-105 limits assumed, chain 2 of 2): as the sequence (P04234 22-105 limits assumed, chain 2 of 2) above, with I5V, N15K, I20V, S32T, D33N, I34N, T64A, S74N, V83L counted along it
T4 sequence (Q9NZD1 whole entry): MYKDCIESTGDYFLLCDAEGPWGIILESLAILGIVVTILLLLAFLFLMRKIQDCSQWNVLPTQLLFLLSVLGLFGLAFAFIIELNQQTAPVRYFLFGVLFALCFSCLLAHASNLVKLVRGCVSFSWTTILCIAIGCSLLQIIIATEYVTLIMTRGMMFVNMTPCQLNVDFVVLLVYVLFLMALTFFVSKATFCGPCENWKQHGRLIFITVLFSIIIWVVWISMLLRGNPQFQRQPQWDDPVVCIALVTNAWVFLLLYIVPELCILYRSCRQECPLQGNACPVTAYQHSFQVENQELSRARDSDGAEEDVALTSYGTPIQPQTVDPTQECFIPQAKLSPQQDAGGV

B1: anti-CD3/GPRC5D bispecific antibody Bi-29H6-6 (bispecific antibody)
heavy 1: QVQLVQSGAEVKKPGASVKVSCKASGYTFTTHYMYWVRQAPGQGLEWIGGINPSNEATNFNEKFKTKATLTVDKSTSTAYMELSSLRSEDTAVYYCTRVGGLSYTMDYWGQGTLVTVSSASTKGPSVFPLAPSSKSTSGGTAALGCLVKDYFPEPVTVSWNSGALTSGVHTFPAVLQSSGLYSLSSVVTVPSSSLGTQTYICNVNHKPSNTKVDKKVEPKSCDKTHTCPPCPAPEAAGGPSVFLFPPKPKDTLMISRTPEVTCVVVAVSHEDPEVKFNWYVDGVEVHNAKTKPREEQYNSTYRVVSVLTVLHQDWLNGKEYKCKVSNKALAAPIEKTISKAKGQPREPQVCTLPPSRDELTKNQVSLSCAVKGFYPSDIAVEWESNGQPENNYKTTPPVLDSDGSFFLVSKLTVDKSRWQQGNVFSCSVMHEALHNHYTQKSLSLSPGK
heavy 2: not shown
light: not shown
notes: G56E variant of the 29H6 VH; also called anti-GPRC5D/CD3 bifunctional antibody Bi-29H6-6
The term EC50 (read off the curve) denotes the concentration giving half of the maximal effect. One may read the Kd as the constant that tells how readily two partners part at equilibrium. Usually koff stands for the first-order rate constant of dissociation. For orientation: kon means the second-order rate constant of association. Turning to B1, the concentration giving a half-maximal response (EC50 (read off the curve)) in test [1] is around 8 nM. Also, in test [2], binding was put at a Kd of 727 nM, the koff was 0.0158 s⁻¹ and the on-rate constant (kon) is 21700 M⁻¹ s⁻¹. Besides, in test [3], the affinity, expressed as Kd, was 75.9 nM; the dissociation rate constant (koff) amounted to 0.00631 s⁻¹; the kon stood at 83200 M⁻¹ s⁻¹. In the test with human GPRC5D protein, the “EC50 (read off the curve)” value was around 3 nM.

B2: control antibody REGN4018 (bispecific antibody, human IgG4 S228P, kappa)
heavy 1: QVQLVESGGGLVKPGGSLRLSCAASGFTFSNYYMSWVRQAPGKGLEWISYISGRGSTIFYADSVKGRITISRDNAKNSLFLQMNSLRAEDTAVYFCVKDRGGYSPYWGQGTLVTVSSASTKGPSVFPLAPCSRSTSESTAALGCLVKDYFPEPVTVSWNSGALTSGVHTFPAVLQSSGLYSLSSVVTVPSSSLGTKTYTCNVDHKPSNTKVDKRVESKYGPPCPPCPAPPVAGPSVFLFPPKPKDTLMISRTPEVTCVVVDVSQEDPEVQFNWYVDGVEVHNAKTKPREEQFNSTYRVVSVLTVLHQDWLNGKEYKCKVSNKGLPSSIEKTISKAKGQPREPQVYTLPPSQEEMTKNQVSLTCLVKGFYPSDIAVEWESNGQPENNYKTTPPVLDSDGSFFLYSRLTVDKSRWQEGNVFSCSVMHEALHNHYTQKSLSLSLGK
heavy 2: EVQLVESGGGLVQPGRSLRLSCAASGFTFDDYSMHWVRQAPGKGLEWVSGISWNSGSIGYADSVKGRFTISRDNAKNSLYLQMNSLRAEDTALYYCAKYGSGYGKFYYYGMDVWGQGTTVTVSSASTKGPSVFPLAPCSRSTSESTAALGCLVKDYFPEPVTVSWNSGALTSGVHTFPAVLQSSGLYSLSSVVTVPSSSLGTKTYTCNVDHKPSNTKVDKRVESKYGPPCPPCPAPPVAGPSVFLFPPKPKDTLMISRTPEVTCVVVDVSQEDPEVQFNWYVDGVEVHNAKTKPREEQFNSTYRVVSVLTVLHQDWLNGKEYKCKVSNKGLPSSIEKTISKAKGQPREPQVYTLPPSQEEMTKNQVSLTCLVKGFYPSDIAVEWESNGQPENNYKTTPPVLDSDGSFFLYSRLTVDKSRWQEGNVFSCSVMHEALHNRFTQKSLSLSLGK
light: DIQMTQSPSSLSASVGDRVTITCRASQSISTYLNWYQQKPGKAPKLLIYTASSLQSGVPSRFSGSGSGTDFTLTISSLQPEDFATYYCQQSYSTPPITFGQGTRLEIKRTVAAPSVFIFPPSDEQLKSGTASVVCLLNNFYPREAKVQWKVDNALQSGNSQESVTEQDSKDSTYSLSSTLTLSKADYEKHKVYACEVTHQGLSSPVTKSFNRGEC
notes: Derived from US20190389966A1; heavy chains REGN4018-8767pH and REGN4018-G20, light chain REGN4018-8767pL; also called positive control
For orientation: EC50 means the concentration needed to bring the measured effect to its halfway point. B2: the results for the concentration giving a half-maximal response (EC50) in test [4] and in test [5] were 3.74 nM and 1.45 nM, respectively.
